Measurements published in publication PMC7053995, “New approach for membrane protein reconstitution into peptidiscs and basis for their adaptability to different proteins” (eLife, 2020).

B1: Escherichia coli mechanosensitive channel MscS, His-tagged (natural protein, UniProt P0C0S1 1-286, looked up)
chain: MEDLNVVDSINGAGSWLVANQALLLSYAVNIVAALAIIIVGLIIARMISNAVNRLMISRKIDATVADFLSALVRYGIIAFTLIAALGRVGVQTASVIAVLGAAGLAVGLALQGSLSNLAAGVLLVMFRPFRAGEYVDLGGVAGTVLSVQIFSTTMRTADGKIIVIPNGKIIAGNIINFSREPVRRNEFIIGVAYDSDIDQVKQILTNIIQSEDRILKDREMTVRLNELGASSINFVVRVWSNSGDLQNVYWDVLERIKREFDAAGISFPYPQMDVNFKRVKEDKAA
notes: full-length E. coli MscS cloned into pET-28b(+); Homo-heptamer; source: E. coli BL21 (DE3), purified (Ni-NTA, SEC)
B2: Escherichia coli MsbA (ABC transporter, lipid transporter), His-tagged (natural protein)
chain: MHNDKDLSTWQTFRRLWPTIAPFKAGLIVAGVALILNAASDTFMLSLLKPLLDDGFGKTDRSVLVWMPLVVIGLMILRGITSYVSSYCISWVSGKVVMTMRRRLFGHMMGMPVSFFDKQSTGTLLSRITYDSEQVASSSSGALITVVREGASIIGLFIMMFYYSWQLSIILIVLAPIVSIAIRVVSKRFRNISKNMQNTMGQVTTSAEQMLKGHKEVLIFGGQEVETKRFDKVSNRMRLQGMKMVSASSISDPIIQLIASLALAFVLYAASFPSVMDSLTAGTITVVFSSMIALMRPLKSLTNVNAQFQRGMAACQTLFTILDSEQEKDEGKRVIERATGDVEFRNVTFTYPGRDVPALRNINLKIPAGKTVALVGRSGSGKSTIASLITRFYDIDEGEILMDGHDLREYTLASLRNQVALVSQNVHLFNDTVANNIAYARTEQYSREQIEEAARMAYAMDFINKMDNGLDTVIGENGVLLSGGQRQRIAIARALLRDSPILILDEATSALDTESERAIQAALDELQKNRTSLVIAHRLSTIEKADEIVVVEDGVIVERGTHNDLLEHRGVYAQLHKMQFGQ
notes: MsbA, ABC transporter of Escherichia coli; Nucleotide-free; also called His6-MsbA; source: E. coli C43, purified (DDM, Ni-NTA, SEC)

What was measured:
[1] = target: Rhodobacter sphaeroides dimeric RC–LH1–PufX complex (521 kDa) (Rhodobacter sphaeroides) (UniProt P0C0Y7); test: negative-stain electron microscopy; SEC peak fractions of purified RC complexes in peptidiscs, 0.7% uranyl formate, 100 class averages by K-means classification
[2] = target: the molecule itself; test: cryo-EM structure; single-particle cryo-EM of His-tagged membrane protein reconstituted on Ni beads into peptidiscs and purified by SEC; vitrified; Titan Krios 300 kV, K2 Summit; RELION-3 with C2 (MsbA) or C7 (MscS) symmetry imposed, also processed without symmetry

Molecule | stoichiometry N [1] | stoichiometry N [2]
Rhodobacter sphaeroides dimeric RC–LH1–PufX complex (521 kDa) (from UniProt P0C0Y7 1-260; P13402 1-82) | 2 | –
B1 | – | 7
B2 | – | 2
